Measured values taken from article PMC7855493 (Molecular cell, 2020).

Target: T1, yeast mitochondrial RNA polymerase ΔN100 (y-mtRNAP ΔN100) (S. cerevisiae, UniProt P13433 101-1351)
T1 sequence (looked up): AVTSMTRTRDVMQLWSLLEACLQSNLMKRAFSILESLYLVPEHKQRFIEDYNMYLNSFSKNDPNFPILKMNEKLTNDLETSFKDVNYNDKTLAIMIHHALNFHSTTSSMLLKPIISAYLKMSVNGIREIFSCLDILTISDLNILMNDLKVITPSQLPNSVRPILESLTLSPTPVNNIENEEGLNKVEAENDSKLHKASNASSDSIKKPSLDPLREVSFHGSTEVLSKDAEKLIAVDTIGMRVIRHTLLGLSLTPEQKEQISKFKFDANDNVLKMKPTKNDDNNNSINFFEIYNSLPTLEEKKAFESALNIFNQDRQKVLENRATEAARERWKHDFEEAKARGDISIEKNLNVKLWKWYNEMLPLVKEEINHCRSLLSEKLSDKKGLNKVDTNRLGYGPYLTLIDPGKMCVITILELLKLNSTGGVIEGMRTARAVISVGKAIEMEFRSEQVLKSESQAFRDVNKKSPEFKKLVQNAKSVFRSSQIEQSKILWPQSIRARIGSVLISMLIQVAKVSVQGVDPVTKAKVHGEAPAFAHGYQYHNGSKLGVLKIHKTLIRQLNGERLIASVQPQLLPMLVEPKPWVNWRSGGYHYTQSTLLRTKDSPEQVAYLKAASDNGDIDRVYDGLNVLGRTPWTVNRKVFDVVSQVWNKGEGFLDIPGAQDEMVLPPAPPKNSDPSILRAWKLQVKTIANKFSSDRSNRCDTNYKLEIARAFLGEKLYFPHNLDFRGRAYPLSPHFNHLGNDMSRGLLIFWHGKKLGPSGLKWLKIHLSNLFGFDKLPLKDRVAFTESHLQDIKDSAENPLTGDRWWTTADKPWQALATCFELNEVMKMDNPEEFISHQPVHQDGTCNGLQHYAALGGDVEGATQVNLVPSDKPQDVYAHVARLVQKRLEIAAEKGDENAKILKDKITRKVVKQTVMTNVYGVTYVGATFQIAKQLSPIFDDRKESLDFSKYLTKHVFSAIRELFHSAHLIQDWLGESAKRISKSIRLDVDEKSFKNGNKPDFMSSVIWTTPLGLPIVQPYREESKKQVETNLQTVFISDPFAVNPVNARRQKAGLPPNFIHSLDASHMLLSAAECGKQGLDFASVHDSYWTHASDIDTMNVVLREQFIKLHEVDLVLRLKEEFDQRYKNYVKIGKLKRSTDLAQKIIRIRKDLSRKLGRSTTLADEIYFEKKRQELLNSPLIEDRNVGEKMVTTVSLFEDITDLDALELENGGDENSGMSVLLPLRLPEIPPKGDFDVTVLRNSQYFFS
Test: cryo-EM structure

binding result: binds
B1: MTF1 (yeast mitochondrial transcription factor), wild type (natural protein, S. cerevisiae)
chain: SVPIPGIKDISKLKFFYGFKYLWNPTVYNKIFDKLDLTKTYKHPEELKVLDLYPGVGIQSAIFYNKYCPRQYSLLEKRSSLYKFLNAKFEGSPLQILKRDPYDWSTYSNLIDEERIFVPEVQSSDHINDKFLTVANVTGEGSEGLIMQWLSCIGNKNWLYRFGKVKMLLWMPSTTARKLLARPGMHSRSKCSVVREAFTDTKLIAISDANELKGFDSQCIEEWDPILFSAAEIWPTKGKPIALVEMDPIDFDFDVDNWDYVTRHLMILKRTPLNTVMDSLGHGGQQYFNSRITDKDLLKKCPIDLTNDEFIYLTKLFMEWPFKPDILMDFVDMYQTEHSG
